Target: the molecule itself
Experiment: cryo-EM structure

B1: Photobacterium phosphoreum LuxC (acyl-CoA reductase) (enzyme)
chain: IKKIPMIIGGAERDTSEHEYRELTLNSYKVSIPIINQDDVEAIKSQSVENNLNINQIVNFLYTVGQKWKSENYSRRLTYIRDLVRFLGYSPEMAKLEANWISMILSSKSALYDIVETELGSRHIVDEWLPQGDCYVKAMPKGKSVHLLAGNVPLSGVTSIIRAILTKNECIIKTSSADPFTAIALASSFIDTDEHHPISRSMSVMYWSHNEDIAIPQQIMNCADVVVSWGGYDAIKWATEHTPVNVDILKFGPKKSIAIVDNPVDITASAIGVAHDICFYDQQACFSTQDIYYIGDNIDAFFDELVEQLNLYMDILPKGDQTFDEKASFSLIEKECQFAKYKVEKGDNQSWLLVKSPLGSFGNQPLARSAYIHHVSDISEITPYIENRITQTVTVTPWESSFKYRDVLASHGAERIVESGMNNIFRVGGAHDGMRPLQRLVKYISHERPYTYSTKDVAVKIEQTRYLEEDKFLVFVP
With B1 the “stoichiometry N” value was 4.
